Positions count from the first letter of the chain named. Names may count otherwise.
B1: GpH7-G1d/GpL16-k0 (antibody, human IgG1, kappa)
heavy: not shown
light: DIVMTQSPLSLPVTPGEPASISCQASESLVHSNRNTYLHWYLQKPGQSPQLLIYKVSNRFSGVPDRFSGSGSGTDFTLKISRVEAEDVGVYYCSQNTHVPPTFGQGTKVEIERTVAAPSVFIFPPSDEQLKSGTASVVCLLNNFYPREAKVQWKVDNALQSGNSQESVTEQDSKDSTYSLSSTLTLSKADYEKHKVYACEVTHQGLSSPVTKSFNRGEC
notes: Anti-glypican-3 IgG1 whose H chain lacks the C-terminal Gly and Lys; Used as the native IgG1 control; also called native IgG1
B2: GpH7-G1d/GpL16-k0 (antibody, human IgG1, kappa)
heavy: not shown
light: B1 light
notes: Anti-glypican-3 IgG1 with C-terminal Gly and Lys removed; also called native IgG1
B3: GpH7-A5/GpH7-B3/GpL16-k0 (antibody, human IgG1, kappa)
heavy 1: not shown
heavy 2: not shown
light: B1 light
notes: also called A5/B3; HeCon Ab
B4: GpH7-A57/GpH7-B78/GpL16-k0 (antibody, human IgG1, kappa)
heavy 1: QVQLVQSGAEVKKPGASVTVSCKASGYTFTDYEMHWIRQPPGEGLEWIGAIDPKTGDTAYSESFQDRVTLTADKSTSTAYMELSSLTSEDTAVYYCTRFYSYTYWGQGTLVTVSSASTKGPSVFPLAPSSKSTSGGTAALGCLVKDYFPEPVTVSWNSGALTSGVHTFPAVLQSSGLYSLSSVVTVPSSSLGTQTYICNVNHKPSNTKVDKKVEPKSCDKTHTCPPCPAPELLGGPDVFLFPPKPKDTLMISRTPEVTCVVVDVSHEDPEVKFNWYVDGVEVHNAKTKPREEQYNSTYRVVSVLTVLHQDWLNGKEYKCKVSNKALPLPEEKTISKAKGQPREPQVYTLPPSRKELTKNQVSLTCLVKGFYPSDIAVEWESNGQPENNYKTTPPVLDSDGSFFLYSKLTVDKSRWQQGNVFSCSVMHEALHNRYTQKSLSLSP
heavy 2: B4 heavy 1 with K354D, R433H, K437E
light: B1 light
notes: Anti-glypican-3 IgG1; also called A57/B78
B5: GpH7-TA7/GpH7-B3/GpL16-k0 (antibody, human IgG1, kappa)
heavy 1: B4 heavy 1 with L232Y, G234W, D237S, S296A, L328A, E330I
heavy 2: not shown
light: B1 light
notes: Heterodimerized anti-glypican-3 IgG1; also called TA7/B3
B6: GpH7-TA7/GpH7-B78/GpL16-k0 (antibody, human IgG1, kappa)
heavy 1: B4 heavy 1 with L232Y, G234W, D237S, S296A, L328A, E330I
heavy 2: B4 heavy 1 with K354D, R433H, K437E
light: B1 light
notes: Heterodimerized anti-glypican-3 IgG1; also called TA7/B78
B7: GpH7-A5/GpH7-B78/GpL16-k0 (antibody, human IgG1, kappa)
heavy 1: not shown
heavy 2: B4 heavy 1 with K354D, R433H, K437E
light: B1 light
notes: Heterodimerized anti-glypican-3 IgG1; also called A5/B78
B8: GpH7-TA7/GpH7-TA45/GpL16-k0 (antibody, human IgG1, kappa)
heavy 1: B4 heavy 1 with L232Y, G234W, D237S, S296A, L328A, E330I
heavy 2: B4 heavy 1 with L232Y, G234W, D237S, S296A, L328A, E330I, K354D, R433H, K437E
light: B1 light
notes: Anti-glypican-3 IgG1; also called TA7/TA45
B9: H240-Kn204/H240-Hl211/L73-k0 (antibody, human IgG1, kappa)
heavy 1: QDQLVQSGAEVKKPGASVKVSCKASGFNIKDTYIQWVRQAPGQGLEWMGRIDPLRKQTKYREKFEGRVTITADTSTNTAYMELSSLRSEDTAVYYCVRSGREFDYWGQGTLVTVSSASTKGPSVFPLAPSSKSTSGGTAALGCLVKDYFPEPVTVSWNSGALTSGVHTFPAVLQSSGLYSLSSVVTVPSSSLGTQTYICNVNHKPSNTKVDKKVEPKSCDKTHTCPPCPAPEYLGGPSVFLFPPKPKDTLMISRTPEVTCVVVDVSHEDPEVKFNWYVDGVEVHNAKTYPREEQWNSTYRVVSVLTVLHQDWLNGKEYKCKVSNKALPAPIEKTISKAKGQPREPQVCTLPPSRDELTKNQVSLWCLVKGFYPSDIAVEWESNGQPENNYKTTPPVLDSDGSFFLYSKLTVDKSRWQQGNVFSCSVMHEALHNHYTQKSLSLSP
heavy 2: QDQLVQSGAEVKKPGASVKVSCKASGFNIKDTYIQWVRQAPGQGLEWMGRIDPLRKQTKYREKFEGRVTITADTSTNTAYMELSSLRSEDTAVYYCVRSGREFDYWGQGTLVTVSSASTKGPSVFPLAPSSKSTSGGTAALGCLVKDYFPEPVTVSWNSGALTSGVHTFPAVLQSSGLYSLSSVVTVPSSSLGTQTYICNVNHKPSNTKVDKKVEPKSCDKTHTCPPCPAPELLGGPDVFLFPPKPKDTLMISRTPEVTCVVVDVSHEDPEVKFNWYVDGVEVHNAKTKPREEQYNSTYRVVSVLTVLHQDWLNGKEYKCKVSNKALPMPIEVTISKAKGQPREPQVYTLPPSRCELTKNQVSLSCAVKGFYPSDIAVEWESNGQPENNYKTTPPVLDSDGSFFLVSKLTVDKSRWQQGNVFSCSVMHEALHNHYTQKSLSLSP
light: DIQMTQSPSSLSASVGDRVTITCRASQDIHKYIAWYQQKPGQAPRLLIQYTSTLQPGVPSRFSGSGSGTDYTFTISSLQPEDIATYYCLQYEQLRTFGGGTKVEIKRTVAAPSVFIFPPSDEQLKSGTASVVCLLNNFYPREAKVQWKVDNALQSGNSQESVTEQDSKDSTYSLSSTLTLSKADYEKHKVYACEVTHQGLSSPVTKSFNRGEC
notes: L234Y/K290Y/Y296W in one H chain, S239D/A330M/K334V in the other
B10: H240-afucosyl_G1d/L73-k0 (antibody, human IgG1, kappa)
heavy: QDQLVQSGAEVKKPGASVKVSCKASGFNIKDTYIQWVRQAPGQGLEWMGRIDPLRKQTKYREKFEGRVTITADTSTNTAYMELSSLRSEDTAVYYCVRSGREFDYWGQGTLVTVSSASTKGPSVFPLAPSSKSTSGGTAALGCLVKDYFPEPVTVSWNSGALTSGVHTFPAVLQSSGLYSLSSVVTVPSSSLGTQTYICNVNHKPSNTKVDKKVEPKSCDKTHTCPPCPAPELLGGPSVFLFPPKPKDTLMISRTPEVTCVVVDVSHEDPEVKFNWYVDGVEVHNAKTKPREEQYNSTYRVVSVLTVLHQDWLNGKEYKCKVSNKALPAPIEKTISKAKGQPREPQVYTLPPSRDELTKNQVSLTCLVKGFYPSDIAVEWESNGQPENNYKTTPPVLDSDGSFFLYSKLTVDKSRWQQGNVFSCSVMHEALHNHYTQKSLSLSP
light: B9 light
modifications: fucose removed from the sugar chain (afucosylated)
notes: Anti-epiregulin IgG1, afucosylated; also called afucosylated antibody
B11: H240-Kn205/H240-Hl212/L73-k0 (antibody, human IgG1, kappa)
heavy 1: B9 heavy 1 with Y289K, S297C
heavy 2: B9 heavy 2 with M329A
light: B9 light
notes: L234Y/Y296W/S298C in one H chain, S239D/K334V in the other
B12: H240-Kn225/H240-Hl076/L73-k0 (antibody, human IgG1, kappa)
heavy 1: B9 heavy 1 with L234Q, G235W, S238I, H267D, D269E, Y289K, W295Y, S297A
heavy 2: B9 heavy 2 with D238S, D269E, K325D, V333E
light: B9 light
B13: H240-Kn229/H240-Hl068/L73-k0 (antibody, human IgG1, kappa)
heavy 1: B9 heavy 1 with L234Y, G235W, S238I, H267D, Y289K, W295Y, S297A, A326D
heavy 2: B9 heavy 2 with D238S, D269E, K325D, M329K, V333E
light: B9 light

Experiments:
FcγRIIIa = biological target: T1, FcγRIIIa (human, UniProt P08637 17-208); experiment: ratio of SPR KDs: KD of GpH7-G1d/GpL16-k0 divided by KD of this antibody
T1 construct: extracellular domain; also called FcgRIIIa; CD16A; not shown: His tag attached to the C terminus
T1 sequence (P08637 17-208): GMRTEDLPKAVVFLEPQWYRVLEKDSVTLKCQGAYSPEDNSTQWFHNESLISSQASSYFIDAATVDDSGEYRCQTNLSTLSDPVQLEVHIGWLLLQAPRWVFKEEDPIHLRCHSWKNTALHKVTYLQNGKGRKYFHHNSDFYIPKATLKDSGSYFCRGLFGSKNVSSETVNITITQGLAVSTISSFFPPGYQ
Procedure: The prepared antibodies were compared for the FcγRIIIa-binding activity using, as an indicator, KD for FcγRIIIa that was determined according to the method described in Reference Example 2.
(§1) Analysis of interaction between objective antibody and the FcγR was carried out using Biacore T100 (GE Healthcare). HBS-EP+ (GE Healthcare) was used as the running buffer, and the measurement temperature was set to 25° C. Chips produced by immobilizing the antigen peptide by the amine coupling method to a Series S Sencor Chip CM5 (GE Healthcare), or alternatively, chips produced by allowing preliminarily biotinylated antigen peptides to interact with and immobilize onto a Series S Sensor Chip SA (certified) (GE Healthcare) were used. Antibodies of interest were captured onto an antigen peptide-immobilized chip, and allowed to interact to each FcγR diluted with running buffer. To regenerate and repeatedly use the chip, the antibodies captured on the chip were washed off by reacting 10 mM glycine-HCl, pH 1.5.
Specifically, to calculate association rate constant ka (L/mol/s) and dissociation rate constant kd (1/s), sensorgrams obtained by measurement were processed for global fitting by Biacore Evaluation Software using 1:1 Langmuir binding model and dissociation constant KD (mol/1) was calculated from the resulting values.

[1] = biological target: T2, FcγRIIIa F extracellular domain with C-terminal His tag (human, UniProt P08637 17-208); experiment: SPR (Biacore); KD for FcγRIIb divided by KD for FcγRIIIa F
T2 construct: extracellular domain; Soluble receptor, F158 allotype; also called FcgRIIIa F; FcgRIIIaF; not shown: His tag at the C terminus
T2 sequence (P08637 17-208): as above
Procedure: The prepared antibodies were assayed as to the KDs for FcγRIIIa and FcγRIIb according to the method described in Reference Example 2.
as §1

FcgRIIaR = biological target: T3, FcgRIIaR (human, UniProt P12318 34-217); experiment: SPR (Biacore); KD of H240-Kn033/H240-Hl033/L73-k0 divided by KD of the variant
T3 construct: extracellular domain; also called FcγRIIa R; FcγRIIa type R; not shown: His tag at the C terminus
T3 sequence (looked up): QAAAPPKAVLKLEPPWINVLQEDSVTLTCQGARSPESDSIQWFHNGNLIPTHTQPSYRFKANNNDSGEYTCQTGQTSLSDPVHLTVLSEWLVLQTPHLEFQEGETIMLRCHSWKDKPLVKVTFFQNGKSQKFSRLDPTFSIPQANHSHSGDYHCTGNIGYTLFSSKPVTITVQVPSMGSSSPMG
Procedure: (§2) Binding of the produced variants to FcgRIa, FcgRIIaR, FcgRIIaH, FcgRIIb, FcgRIIIaF, and FcgRIIIaV was measured according to the method of Reference Example 8.
(§3) Analysis of interaction between objective antibody and the FcγR was carried out using Biacore T100 (GE Healthcare), Biacore T200, Biacore A100, and Biacore 4000. HBS-EP+ (GE Healthcare) was used as the running buffer, and the measurement temperature was set to 25° C. Chips produced by immobilizing the antigen peptide by the amine coupling method to a Series S sensor Chip CM5 (GE Healthcare), chips produced by allowing preliminarily biotinylated antigen peptides to interact with and immobilize onto a Series S Sensor Chip SA (certified) (GE Healthcare), chips produced by immobilizing Protein L (ACTIGEN, BioVision) to Series S Sencor Chip CM5 (GE Healthcare), or chips produced by immobilizing Protein A/G (Thermo Scientific) to Series S Sencor Chip CM5 (GE Healthcare) were used. Antibodies of interest were captured onto these chips, and allowed to interact to each FcγR diluted with running buffer. To regenerate and repeatedly use the chip, the antibodies captured onto the chip were washed off by reacting 10 mM glycine-HCl, pH 1.5.

FcgRIIaH = biological target: T4, FcgRIIaH (human, UniProt P12318 34-217); experiment: as above
T4 construct: extracellular domain; also called FcγRIIa H; FcγRIIa type H; not shown: His tag at the C terminus
T4 sequence (looked up): T3 sequence (looked up) with R134H
Procedure: as §2, §3

FcgRIIb = biological target: T5, FcgRIIb (human, UniProt P31994 43-217); experiment: as above
T5 construct: extracellular domain; also called FcγRIIb; CD32B; not shown: His tag at the C terminus
T5 sequence (looked up): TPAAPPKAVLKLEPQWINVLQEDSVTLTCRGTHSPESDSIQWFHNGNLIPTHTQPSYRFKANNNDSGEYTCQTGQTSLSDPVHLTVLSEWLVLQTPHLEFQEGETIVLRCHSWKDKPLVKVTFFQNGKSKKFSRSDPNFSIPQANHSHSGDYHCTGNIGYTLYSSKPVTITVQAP
Procedure: as §2, §3

FcgRIIIaF = biological target: T6, FcgRIIIaF (human, UniProt P08637 17-208); experiment: as above
T6 construct: extracellular domain; also called FcγRIIIa F; not shown: His tag at the C terminus
T6 sequence (P08637 17-208): as the sequence (P08637 17-208) above
Procedure: as §2, §3

FcgRIIIaV = biological target: T7, FcgRIIIaV (human, UniProt P08637 17-208); experiment: as above
T7 construct: extracellular domain; also called FcγRIIIa V; not shown: His tag at the C terminus
T7 sequence (P08637 17-208 F176V limits assumed): as the sequence (P08637 17-208) above, with F160V counted along it
Procedure: as §2, §3

Binder	KD ratio 1 (FcγRIIIa) [fold]	FcγRIIIa F/FcγRIIb ratio [1]	fold 2aR (FcgRIIaR) [fold]	fold 2aH (FcgRIIaH) [fold]	fold 2b (FcgRIIb) [fold]	fold 3aF (FcgRIIIaF) [fold]	fold 3aV (FcgRIIIaV) [fold]
B1	1	–	–	–	–	–	–
B2	–	2.5	–	–	–	–	–
B3	–	1.9	–	–	–	–	–
B4	–	100	–	–	–	–	–
B5	–	14	–	–	–	–	–
B6	–	244	–	–	–	–	–
B7	–	7.9	–	–	–	–	–
B8	–	5.3	–	–	–	–	–
B9	–	–	1.2	0.7	2.5	20.7	6.5
B10	–	–	1.5	0.7	1.3	3.7	7
B11	–	–	1.2	1.4	2.1	24.2	11.4
B12	–	–	1.5	3.1	0.6	264	253
B13	–	–	46.3	13.3	16.5	138	62.3

From patent publication US20150344570A1 (published 2015)
